Experimental data reported in publication PMC13544220, “Glycemic and bodyweight effects of GIPR coding variation reflect differences in surface expression and intrinsic functional impairment” (Science Advances, 2026).

Tests used:
Assay type in all cases: cell-based, human
[1] = tested on: wild-type and variant SNAP-GIPR; test: Surface SNAP-GIPR expression (SNAP-tag labelling) in AD293 cells; details: for AD293 Surface: Fig S3E, mean; for Surface SNAP-GIPR expression: sheet Fig 1C;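 as to all read-outs here: scaled to the experimental average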
In short: (§1)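 Surface GIPR is quantified from wide-field images after labelling intact transfected cells with a membrane-impermeant SNAP probe at 500 nM for 10 min at room temperature. Specific signal, corrected for nontransfected cells, is normalized to the experiment-wide average or to wild-type.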

[2] = tested on: wild-type and variant SNAP-GIPR; test: Surface SNAP-GIPR expression (SNAP-tag labelling) in INS-1 cells; details: Fig 4G; Mean
In short: as §1

[3] = tested on: wild-type and variant SNAP-GIPR; test: Single-concentration GIP cAMP response by HTRF in AD293 cells; details: Fig S3F, HTRF, mean;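 also: ratio to experiment-wide average response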
Description: (§2) All variants were tested in parallel on each occasion to control for transfection efficiency differences between experiments.

[4] = tested on: wild-type and variant SNAP-GIPR; test: Single-concentration GIP cAMP response by HTRF in INS-1 cells; details: Fig S3E, mean
Description: as §2

[5] = tested on: wild-type and variant SNAP-GIPR; test: cADDis cAMP imaging in AD293 cells, ensemble, expression-matched and per decile; details: Fig S3F, cADDis, mean
In short: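 Per-cell cAMP from cADDis intensity over time, with cells excluded by IBMX/FSK response criteria. Expression matching used wild-type surface-SNAP deciles, top and bottom trimmed, mean of decile means. Ensemble values ignore deciles. Wide-field imaging at 37 °C in KRBH with 6 mM glucose, 0.1% BSA, 24 h post-transfection in AD293.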

[6] = tested on: wild-type and variant SNAP-GIPR; test: Constitutive and agonist-mediated internalization, reversible SNAP-tag labelling, AD293 cells; parameters: key to Internalisation, Vehicle / Internalisation, +GIP / Internalisation, GIP-only: % internalization: residual fluorescence after Mesna vs pre-Mesna; Surface expression: unit not given here; details: Mean
In short: (§3)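 % internalization = residual specific fluorescence after Mesna / pre-Mesna value. Imaging in TNE buffer pH 8.6; second image 10 min post-Mesna.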

[7] = tested on: wild-type and variant SNAP-GIPR; test: Constitutive and agonist-mediated internalization, reversible SNAP-tag labelling, INS-1 cells; parameters: key to Internalisation, GIP-only / Internalisation, Vehicle / Internalisation, +GIP: % internalization: residual fluorescence after Mesna vs pre-Mesna; details: Mean
In short: as §3

B1: T116R (protein, UniProt P48546 22-466, looked up, variant T116R)
Gastric inhibitory …: RAETGSKGQTAGELYQRWERYRRECQETLAAAEPPSGLACNGSFDMYVCWDYAAPNATARASCPWYLPWHHHVAAGFVLRQCGSDGQWGLWRDHRQCENPEKNEAFLDQRLILERLQVMYTVGYSLSLATLLLALLILSLFRRLHCTRNYIHINLFTSFMLRAAAILSRDRLLPRPGPYLGDQALALWNQALAACRTAQIVTQYCVGANYTWLLVEGVYLHSLLVLVGGSEEGHFRYYLLLGWGAPALFVIPWVIVRYLYENTQCWERNEVKAIWWIIRTPILMTILINFLIFIRILGILLSKLRTRQMRCRDYRLRLARSTLTLVPLLGVHEVVFAPVTEEQARGALRFAKLGFEIFLSSFQGFLVSVLYCFINKEVQSEIRRGWHHCRLRRSLGEEQRQLPERAFRALPSGSGPGEVPTSRGLSSGTLPGPGNEASRELESYC
- AD293 Surface ([1]; column repeated, paired with cAMP 100 nM): 1.324
- AD293 Surface ([1]; paired with cAMP 100 pM): 1.324
- Surface SNAP-GIPR expression ([1]; replicate 1): 1.245
- Surface SNAP-GIPR expression ([1]; replicate 2): 1.023
- Surface SNAP-GIPR expression ([1]; replicate 3): 0.6735
- Surface SNAP-GIPR expression ([1]; replicate 4): 1.28
- Surface SNAP-GIPR expression ([1]; replicate 5): 0.9777
- Surface SNAP-GIPR expression ([1]; replicate 6): 1.324
- Surface SNAP-GIPR expression ([1]; replicate 7): 1.095
- Surface SNAP-GIPR expression ([1]; replicate 8): 1.165
- Surface SNAP-GIPR expression ([1]; replicate 9): 1.067
- Surface SNAP-GIPR expression ([1]; replicate 10): 1.216
- Surface SNAP-GIPR expression ([1]; replicate 11): 0.8978
- Surface SNAP-GIPR expression ([1]; replicate 12): 1.007
- Surface SNAP-GIPR expression ([1]; replicate 13): 1.293
- Surface SNAP-GIPR expression ([1]; replicate 14): 1.058
- Surface SNAP-GIPR expression ([1]; replicate 15): 1.321
- Surface SNAP-GIPR expression ([1]; replicate 16): 1.079
- Surface SNAP-GIPR expression ([1]; replicate 17): 1.526
- Surface SNAP-GIPR expression ([1]; replicate 18): 1.463
- Surface SNAP-GIPR expression ([1]; replicate 19): 1.041
- Surface SNAP-GIPR expression ([1]; replicate 20): 1.229
- Surface SNAP-GIPR expression ([1]; replicate 21): 1.037
- Surface SNAP-GIPR expression ([1]; replicate 22): 1.307
- Surface SNAP-GIPR expression ([1]; replicate 23): 1.273
- Surface SNAP-GIPR expression ([1]; replicate 24): 1.448
- Surface SNAP-GIPR expression ([1]; replicate 25): 1.438
- Surface SNAP-GIPR expression ([1]; replicate 26): 1.564
- Surface SNAP-GIPR expression ([1]; replicate 27): 1.467
- Surface SNAP-GIPR expression ([1]; replicate 28): 1.252
- Surface SNAP-GIPR expression ([1]; replicate 29): 1.566
- Surface SNAP-GIPR expression ([1]; replicate 30): 1.334
- Surface SNAP-GIPR expression ([1]; replicate 31): 1.686
- Surface SNAP-GIPR expression ([1]; replicate 32): 1.692
- Surface SNAP-GIPR expression ([1]; replicate 33): 1.307
- Surface SNAP-GIPR expression ([1]; replicate 34): 1.109
- Surface SNAP-GIPR expression ([1]; replicate 35): 1.705
- Surface SNAP-GIPR expression ([1]; replicate 36): 1.374
- Surface SNAP-GIPR expression ([1]; replicate 37): 1.911
- Surface SNAP-GIPR expression ([1]; replicate 38): 1.787
- Surface SNAP-GIPR expression ([1]; replicate 39): 1.944
- Surface SNAP-GIPR expression ([1]; replicate 40): 1.676
- Surface SNAP-GIPR expression ([1]; replicate 41): 1.421
- Surface expression [2]: 1.428
- AD293 100 pM HTRF ([3]; AD293, 100 pM): 0.9665
- AD293 100 nM HTRF ([3]; AD293, 100 nM): 1.485
- INS-1 cAMP (100 nM) [4]: 1.507
- AD293 100 pM cADDis ([5]; AD293, 100 pM): 33.6456
- AD293 100 nM cADDis ([5]; AD293, 100 nM): 38.18
- +GIP internalisation (100 nM) ([6]; Fig 4E, GIP 100 nM): 0.9677
- GIP-specific internalisation (100 nM) ([6]; Fig 4E, GIP 100 nM): 0.2939
- Constitutive internalisation (100 nM) ([6]; Fig 4E): 0.6738
- Surface expression ([6]; Fig 4E): 1.687
- Internalisation, +GIP ([6]; Fig S4C, AD293): 57.3525
- Internalisation, GIP-only ([6]; Fig S4C, AD293): 17.4551
- Internalisation, Vehicle ([6]; Fig S4C, AD293): 39.8973
- +GIP internalisation (100 nM) ([7]; Fig 4G, GIP 100 nM): 0.7228
- GIP-specific internalisation (100 nM) ([7]; Fig 4G, GIP 100 nM): 0.1652
- Constitutive internalisation (100 nM) ([7]; Fig 4G): 0.5577
- Internalisation, +GIP ([7]; Fig S4C, INS-1): 48.6183
- Internalisation, GIP-only ([7]; Fig S4C, INS-1): 11.125
- Internalisation, Vehicle ([7]; Fig S4C, INS-1): 37.4933
